# Data reported in publication PMC6879633.
# pKd: −log10 of the molar value.
# Experiments:
# [1] = target: WT-A34F/V39L double mutant of wild-type Gβ1 (Streptococcus); experiment: NMR titration
# [2] = target: WT-A34F/V39L double mutant of wild-type Gβ1 (Streptococcus); experiment: SEC; analytical size-exclusion chromatography, Superdex 200 Increase; 1 mL of protein at 1 mM loaded; 10 mM sodium phosphate buffer pH 7.4, 1 mL/min; elution time compared with monomeric (wild type) and dimeric (WT-A34F) controls; self-association, monomer or dimer
# [3] = target: WT-A34F, A34F point mutant of wild-type Gβ1 (Streptococcus); experiment: as above
Substance,pKd [1],stoichiometry N [2],stoichiometry N [3]
WT-A34F/V39L double mutant of wild-type Gβ1 (domain or fragment),3.94,2,–
"WT-A34F, A34F point mutant of wild-type Gβ1 (domain or fragment)",–,–,2
